Assay results as given in the supplement of paper PMC5998384.

Assays:
HeLa Kyoto [1] = experiment: solubility in G1/S (NP-40 vs SDS abundance) (log2 ratio); higher = more soluble; conditions: cell cycle stage: G1/S
HeLa Kyoto [2] = experiment: melting temperature (median over replicates), in situ; higher = more thermally stable
HeLa Kyoto [3] = experiment: solubility change mitosis vs G1/S (difference of NP-40 vs SDS log2 ratios) (log2 ratio difference); higher = more soluble in mitosis
HeLa Kyoto [4] = experiment: thermal stability score vs G1/S (z-score of summed log2 fold changes over temperatures); higher = more thermally stable than in G1/S
[5] = cell cycle stage: early G1 (4.5 h after nocodazole release)
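For melting temperature (median over replicates), in situ in this document: HeLa Kyoto cells synchronized by double thymidine or nocodazole block, proteins quantified by TMT10plex mass spectrometry, three independent biological replicates.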
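For solubility change mitosis vs G1/S (difference of NP-40 vs SDS log2 ratios) in this document: synchronized HeLa Kyoto cells (double thymidine block for G1/S, nocodazole release for mitosis), protein amounts in NP-40 versus SDS lysates quantified by mass spectrometry, three biological replicates.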
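For solubility in G1/S (NP-40 vs SDS abundance) in this document: HeLa Kyoto cells arrested at G1/S by double thymidine block, proteins quantified by TMT10plex mass spectrometry in mild NP-40 versus SDS extracts, three biological replicates.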
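For thermal stability score vs G1/S (z-score of summed log2 fold changes over temperatures) in this document: synchronized HeLa Kyoto cells, proteins quantified by TMT10plex mass spectrometry, three biological replicates, mitosis taken 0.5 h after nocodazole release, G1/S directly after double thymidine block.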

| Substance | solubility in G1/S (log2) (HeLa Kyoto [1]) | melting temperature (HeLa Kyoto [2]; cell cycle stage: G1/S) | melting temperature (HeLa Kyoto [2]; cell cycle stage: mitosis) | solubility change mitosis (log2) (HeLa Kyoto [3]) | thermal stability score (HeLa Kyoto [4]; [5]) | thermal stability score (HeLa Kyoto [4]; cell cycle stage: mitosis) |
| --- | --- | --- | --- | --- | --- | --- |
| MADPAAPTPAAPAPAQAPAPAPEAVPAPAAAPVPAPAPASDSASGPSSDSGPEAGSQRLLFSHDLVSGRYRGSVHFGLVRLIHGEDSDSEGEEEGRGSSGCSEAGGAGHEEGRASPLRRGYVRVQWYPEGVKQHVKETKLKLEDRSVVPRDVVRHMRSTDSQCGTVIDVNIDCAVKLIGTNCIIYPVNSKDLQHIWPFMYGDYIAYDCWLGKVYDLKNQIILKLSNGARCSMNTEDGAKLYDVCPHVSDSGLFFDDSYGFYPGQVLIGPAKIFSSVQWLSGVKPVLSTKSKFRVVVEEVQVVELKVTWITKSFCPGGTDSVSPPPSVITQENLGRVKRLGCFDHAQRQLGERCLYVFPAKVEPAKIAWECPEKNCAQGEGSMAKKVKRLLKKQVVRIMSCSPDTQCSRDHSMEDPDKKGESKTKSEAESASPEETPDGSASPVEMQDEGAEEPHEAGEQLPPFLLKEGRDDRLHSAEQDADDEAADDTDDTSSVTSSASSTTSSQSGSGTSRKKSIPLSIKNLKRKHKRKKNKITRDFKPGDRVAVEVVTTMTSADVMWQDGSVECNIRSNDLFPVHHLDNNEFCPGDFVVDKRVQSCPDPAVYGVVQSGDHIGRTCMVKWFKLRPSGDDVELIGEEEDVSVYDIADHPDFRFRTTDIVIRIGNTEDGAPHKEDEPSVGQVARVDVSSKVEVVWADNSKTIILPQHLYNIESEIEESDYDSVEGSTSGASSDEWEDDSDSWETDNGLVEDEHPKIEEPPIPPLEQPVAPEDKGVVISEEAATAAVQGAVAMAAPMAGLMEKAGKDGPPKSFRELKEAIKILESLKNMTVEQLLTGSPTSPTVEPEKPTREKKFLDDIKKLQENLKKTLDNVAIVEEEKMEAVPDVERKEDKPEGQSPVKAEWPSETPVLCQQCGGKPGVTFTSAKGEVFSVLEFAPSNHSFKKIEFQPPEAKKFFSTVRKEMALLATSLPEGIMVKTFEDRMDLFSALIKGPTRTPYEDGLYLFDIQLPNIYPAVPPHFCYLSQCSGRLNPNLYDNGKVCVSLLGTWIGKGTERWTSKSSLLQVLISIQGLILVNEPYYNEAGFDSDRGLQEGYENSRCYNEMALIRVVQSMTQLVRRPPEVFEQEIRQHFSTGGWRLVNRIESWLETHALLEKAQALPNGVPKASSSPEPPAVAELSDSGQQEPEDGGPAPGEASQGSDSEGGAQGLASASRDHTDQTSETAPDASVPPSVKPKKRRKSYRSFLPEKSGYPDIGFPLFPLSKGFIKSIRGVLTQFRAALLEAGMPECTEDK [UBE2O] | -0.0555 | 51.7 °C | 51.1 °C | -0.0785 | -1.41 | -1.46 |
| MGRSGKLPSGVSAKLKRWKKGHSSDSNPAICRHRQAARSRFFSRPSGRSDLTVDAVKLHNELQSGSLRLGKSEAPETPMEEEAELVLTEKSSGTFLSGLSDCTNVTFSKVQRFWESNSAAHKEICAVLAAVTEVIRSQGGKETETEYFAALMTTMEAVESPESLAAVAYLLNLVLKRVPSPVLIKKFSDTSKAFMDIMSAQASSGSTSVLRWVLSCLATLLRKQDLEAWGYPVTLQVYHGLLSFTVHPKPKIRKAAQHGVCSVLKGSEFMFEKAPAHHPAAISTAKFCIQEIEKSGGSKEATTTLHMLTLLKDLLPCFPEGLVKSCSETLLRVMTLSHVLVTACAMQAFHSLFHARPGLSTLSAELNAQIITALYDYVPSENDLQPLLAWLKVMEKAHINLVRLQWDLGLGHLPRFFGTAVTCLLSPHSQVLTAATQSLKEILKECVAPHMADIGSVTSSASGPAQSVAKMFRAVEEGLTYKFHAAWSSVLQLLCVFFEACGRQAHPVMRKCLQSLCDLRLSPHFPHTAALDQAVGAAVTSMGPEVVLQAVPLEIDGSEETLDFPRSWLLPVIRDHVQETRLGFFTTYFLPLANTLKSKAMDLAQAGSTVESKIYDTLQWQMWTLLPGFCTRPTDVAISFKGLARTLGMAISERPDLRVTVCQALRTLITKGCQAEADRAEVSRFAKNFLPILFNLYGQPVAAGDTPAPRRAVLETIRTYLTITDTQLVNSLLEKASEKVLDPASSDFTRLSVLDLVVALAPCADEAAISKLYSTIRPYLESKAHGVQKKAYRVLEEVCASPQGPGALFVQSHLEDLKKTLLDSLRSTSSPAKRPRLKCLLHIVRKLSAEHKEFITALIPEVILCTKEVSVGARKNAFALLVEMGHAFLRFGSNQEEALQCYLVLIYPGLVGAVTMVSCSILALTHLLFEFKGLMGTSTVEQLLENVCLLLASRTRDVVKSALGFIKVAVTVMDVAHLAKHVQLVMEAIGKLSDDMRRHFRMKLRNLFTKFIRKFGFELVKRLLPEEYHRVLVNIRKAEARAKRHRALSQAAVEEEEEEEEEEEPAQGKGDSIEEILADSEDEEDNEEEERSRGKEQRKLARQRSRAWLKEGGGDEPLNFLDPKVAQRVLATQPGPGRGRKKDHGFKVSADGRLIIREEADGNKMEEEEGAKGEDEEMADPMEDVIIRNKKHQKLKHQKEAEEEELEIPPQYQAGGSGIHRPVAKKAMPGAEYKAKKAKGDVKKKGRPDPYAYIPLNRSKLNRRKKMKLQGQFKGLVKAARRGSQVGHKNRRKDRRP [RRP12] | -0.758 | 46.3 °C | 49 °C | 0.248 | 3.24 | 7.79 |
| MKKASRSVGSVPKVSAISKTQTAEKIKPENSSSASTGGKLVKPGTAASLSKTKSSDDLLAGMAGGVTVTNGVKGKKSTCPSAAPSASAPAMTTVENKSKISTGTASSTKRSTSTGNKESSSTRERLRERTRLNQSKKLPSAGQGANDMALAKRSRSRTATECDVRMSKSKSDNQISDRAALEAKVKDLLTLAKTKDVEILHLRNELRDMRAQLGINEDHSEGDEKSEKETIMAHQPTDVESTLLQLQEQNTAIREELNQLKNENRMLKDRLNALGFSLEQRLDNSEKLFGYQSLSPEITPGNQSDGGGTLTSSVEGSAPGSVEDLLSQDENTLMDHQHSNSMDNLDSECSEVYQPLTSSDDALDAPSSSESEGIPSIERSRKGSSGNASEVSVACLTERIHQMEENQHSTSEELQATLQELADLQQITQELNSENERLGEEKVILMESLCQQSDKLEHFSRQIEYFRSLLDEHHISYVIDEDVKSGRYMELEQRYMDLAENARFEREQLLGVQQHLSNTLKMAEQDNKEAQEMIGALKERSHHMERIIESEQKGKAALAATLEEYKATVASDQIEMNRLKAQLENEKQKVAELYSIHNSGDKSDIQDLLESVRLDKEKAETLASSLQEDLAHTRNDANRLQDAIAKVEDEYRAFQEEAKKQIEDLNMTLEKLRSDLDEKETERSDMKETIFELEDEVEQHRAVKLHDNLIISDLENTVKKLQDQKHDMEREIKTLHRRLREESAEWRQFQADLQTAVVIANDIKSEAQEEIGDLKRRLHEAQEKNEKLTKELEEIKSRKQEEERGRVYNYMNAVERDLAALRQGMGLSRRSSTSSEPTPTVKTLIKSFDSASQVPNPAAAAIPRTPLSPSPMKTPPAAAVSPMQRHSISGPISTSKPLTALSDKRPNYGEIPVQEHLLRTSSASRPASLPRVPAMESAKTLSVSRRSSEEVKRDISAQEGASPASLMAMGTTSPQLSLSSSPTASVTPTTRSRIREERKDPLSALAREYGGSKRNALLKWCQKKTEGYQNIDITNFSSSWNDGLAFCALLHTYLPAHIPYQELNSQDKRRNFMLAFQAAESVGIKSTLDINEMVRTERPDWQNVMLYVTAIYKYFET [SPECC1L] | -0.183 | 50.8 °C | 50.7 °C | 0.448 | 0.147 | -0.333 |
| MTTLDDKLLGEKLQYYYSSSEDEDSDHEDKDRGRCAPASSSVPAEAELAGEGISVNTGPKGVINDWRRFKQLETEQREEQCREMERLIKKLSMTCRSHLDEEEEQQKQKDLQEKISGKMTLKEFAIMNEDQDDEEFLQQYRKQRMEEMRQQLHKGPQFKQVFEISSGEGFLDMIDKEQKSIVIMVHIYEDGIPGTEAMNGCMICLAAEYPAVKFCKVKSSVIGASSQFTRNALPALLIYKGGELIGNFVRVTDQLGDDFFAVDLEAFLQEFGLLPEKEVLVLTSVRNSATCHSEDSDLEID [PDCL] | -0.0669 | – | 51.5 °C | 0.0999 | 0.206 | -0.546 |
| TARBP1 | -0.262 | 52.3 °C | 51.6 °C | -0.207 | 0.335 | -0.385 |
| COL5A1 | -0.2 | 55.6 °C | 55.3 °C | 0.0059 | -0.461 | 1.15 |
